Results reported in patent US20190112340A1.
pKd: −log10 of the molar value.

Assays:
sc8 DS-Cav1 = assay: BLI (Octet), F on Ni-NTA tips, Fab in solution
[1] = target: sc9-10 A DS-Cav1 A149C, Y458C; assay: BLI (Octet), F on Ni-NTA tips, Fab in solution
[2] = target: RSV F DS-Cav1 (human RSV subtype A (strain A2)) (UniProt P03420); assay: BLI (Octet), F on Ni-NTA tips, Fab in solution
[3] = target: sc9-10 DS-Cav1 N183GC, N428C S46G-N67I-E92D-S215P-K465Q (A2); assay: BLI (Octet), F on Ni-NTA tips, Fab in solution
[4] = target: sc9-10 DS-Cav1 A149C, Y458C S46G-N67I-E92D-S215P-K465Q (A2); assay: BLI (Octet), F on Ni-NTA tips, Fab in solution
[5] = target: sc9-10 DS-Cav1 A149C, Y458C S46G-E92D-S215P-K465Q (A2); assay: BLI (Octet), F on Ni-NTA tips, Fab in solution
[6] = target: sc9-10 DS-Cav1 Q98C, Q361C L95M-I221M-R429K (B18537); assay: BLI (Octet), F on Ni-NTA tips, Fab in solution
[7] = target: sc9-10 DS-Cav1 A149C, Y458C S46G-S215P-K465Q (A2); assay: BLI (Octet), F on Ni-NTA tips, Fab in solution
sc9 DS-Cav1-105Q = assay: BLI (Octet), F on Ni-NTA tips, Fab in solution
[8] = target: sc9-10 DS-Cav1 N183GC,N428C; assay: BLI (Octet), F on Ni-NTA tips, Fab in solution
sc9-19 DS-Cav1 = assay: BLI (Octet), F on Ni-NTA tips, Fab in solution
sc9-24 DS-Cav1 = assay: BLI (Octet), F on Ni-NTA tips, Fab in solution
[9] = target: sc9-10 DS-Cav1 Q98C, Q361C S46G-E92D-L95M-S215P-I217P-I221M-R429K-K465Q (Long (VR26)); assay: BLI (Octet), F on Ni-NTA tips, Fab in solution
[10] = target: RSV F sc9-9 DS-Cav1 (human RSV subtype A (strain A2)) (UniProt P03420); assay: BLI (Octet), F on Ni-NTA tips, Fab in solution
[11] = target: RSV F sc9 DS-Cav1 (human RSV subtype A (strain A2)); assay: BLI (Octet), F on Ni-NTA tips, Fab in solution
sc10 DS-Cav1 [12] = assay: BLI (Octet), F on Ni-NTA tips, Fab in solution
[13] = target: RSV F sc9-10 DS-Cav1 (human RSV subtype A (strain A2)); assay: BLI (Octet), F on Ni-NTA tips, Fab in solution
sc11 DS-Cav1 = assay: BLI (Octet), F on Ni-NTA tips, Fab in solution
[14] = target: bRSV F ATue51908 sc9-10 DS-Cav1 A149C Y458C (bovine RSV, strain ATue51908 (NP_048055.1)); assay: Fab binding to purified bRSV F trimer (Octet BLI as in Example 1)
[15] = target: bRSV F ATue51908 DS-Cav1 (bovine RSV, strain ATue51908) (UniProt P22167); assay: as above
[16] = target: bRSV F RB94 DS-Cav1 (bovine RSV, strain RB94) (UniProt P23728); assay: as above
[17] = target: bRSV F 391-2 DS-Cav1 (bovine RSV, strain 391-2) (UniProt P22167); assay: as above
[18] = target: bRSV F strain 391-2 sc9-10, DS-Cav1, Q98C-Q361C (bovine RSV, strain 391-2); assay: as above
[19] = target: bRSV F 391-2 sc9 DS-Cav1 Q98C Q361C (bovine RSV, strain 391-2) (UniProt P22167); assay: as above
[20] = target: sc9-10 A DS-Cav1 A149C, Y458C; assay: BLI (Octet), D25 Fab binding after/before stress
[21] = target: RSV F DS-Cav1 (human RSV subtype A (strain A2)) (UniProt P03420); assay: BLI (Octet), D25 Fab binding after/before stress
[22] = target: sc9-10 DS-Cav1 N183GC, N428C S46G-N67I-E92D-S215P-K465Q (A2); assay: BLI (Octet), D25 Fab binding after/before stress
[23] = target: sc9-10 DS-Cav1 A149C, Y458C S46G-N67I-E92D-S215P-K465Q (A2); assay: BLI (Octet), D25 Fab binding after/before stress
[24] = target: sc9-10 DS-Cav1 A149C, Y458C S46G-E92D-S215P-K465Q (A2); assay: BLI (Octet), D25 Fab binding after/before stress
[25] = target: sc9-10 DS-Cav1 A149C, Y458C S46G-S215P-K465Q (A2); assay: BLI (Octet), D25 Fab binding after/before stress
[26] = target: sc9-10 DS-Cav1 N183GC,N428C; assay: BLI (Octet), D25 Fab binding after/before stress
[27] = target: RSV F sc9 DS-Cav1 (human RSV subtype A (strain A2)); assay: BLI (Octet), D25 Fab binding after/before stress
sc10 DS-Cav1 [28] = assay: BLI (Octet), D25 Fab binding after/before stress
[29] = target: RSV F sc9 DS-Cav1 (human RSV subtype A (strain A2)); assay: D25 binding to heat-treated protein relative to the untreated protein (physical stability, FIG. 1E)

MPE8 Fab
pKd (sc8 DS-Cav1): 9.30 | pKd [1]: 10.00 | pKd [2]: 9.30 | pKd [3]: 9.70 | pKd [4]: 9.70 | pKd [5]: 9.70 | pKd [6]: 9.70 | pKd [7]: 9.40 | pKd (sc9 DS-Cav1-105Q): 9.10 | pKd [8]: 10.00 | pKd (sc9-19 DS-Cav1): 9.00 | pKd (sc9-24 DS-Cav1): 9.10 | pKd [9]: 9.70 | pKd [10]: > 11.00 | pKd [11]: 9.10 | pKd (sc10 DS-Cav1 [12]): 9.10 | pKd [13]: 9.10 | pKd (sc11 DS-Cav1): 8.80 | pKd [14]: 9.30 | pKd [15]: 9.70 | pKd [16]: 9.70 | pKd [17]: 9.70 | pKd [18]: 9.10 | pKd [19]: 9.40

D25 Fab
pKd [1]: 9.70 | pKd [2]: 9.82 | pKd [3]: 9.70 | pKd [4]: 9.22 | pKd [5]: 9.70 | pKd [7]: 10.00 | pKd [8]: 9.70 | pKd [11]: 9.10 | pKd (sc10 DS-Cav1 [12]): 9.52 | fractional D25 reactivity, 10 cycles freeze/thaw with 5% glycerol [20]: 0.6 | fractional D25 reactivity, 10 cycles freeze/thaw with 10% glycerol [20]: 0.9 | fractional D25 reactivity, 50 °C [20]: 1 | fractional D25 reactivity, 70 °C [20]: 0.8 | fractional D25 reactivity, freeze-thaw [20]: 0.3 | fractional D25 reactivity, osmolality 10 mM [20]: 0.7 | fractional D25 reactivity, osmolality 3000 mM [20]: 0.6 | fractional D25 reactivity, pH 3.5 [20]: 2.3 | fractional D25 reactivity, pH 10.0 [20]: 0.7 | fractional D25 reactivity, 50 °C [21]: 0.9 | fractional D25 reactivity, 70 °C [21]: 0 | fractional D25 reactivity, freeze-thaw [21]: 0.1 | fractional D25 reactivity, osmolality 10 mM [21]: 0.9 | fractional D25 reactivity, osmolality 3000 mM [21]: 1 | fractional D25 reactivity, pH 3.5 [21]: 0.8 | fractional D25 reactivity, pH 10.0 [21]: 0.5 | fractional D25 reactivity, 50 °C [22]: 1 | fractional D25 reactivity, 70 °C [22]: 0.9 | fractional D25 reactivity, freeze-thaw [22]: 0.2 | fractional D25 reactivity, osmolality 10 mM [22]: 0.8 | fractional D25 reactivity, osmolality 3000 mM [22]: 0.7 | fractional D25 reactivity, pH 10.0 [22]: 0.5 | fractional D25 reactivity, 50 °C [23]: 1 | fractional D25 reactivity, 70 °C [23]: 0.9 | fractional D25 reactivity, freeze-thaw [23]: 0.1 | fractional D25 reactivity, osmolality 10 mM [23]: 0.8 | fractional D25 reactivity, osmolality 3000 mM [23]: 0.7 | fractional D25 reactivity, pH 10.0 [23]: 0.7 | fractional D25 reactivity, 50 °C [24]: 0.9 | fractional D25 reactivity, 70 °C [24]: 0.8 | fractional D25 reactivity, freeze-thaw [24]: 0.2 | fractional D25 reactivity, osmolality 10 mM [24]: 0.5 | fractional D25 reactivity, osmolality 3000 mM [24]: 0.6 | fractional D25 reactivity, pH 3.5 [24]: 3.8 | fractional D25 reactivity, pH 10.0 [24]: 0.6 | fractional D25 reactivity, 50 °C [25]: 1 | fractional D25 reactivity, 70 °C [25]: 0.9 | fractional D25 reactivity, freeze-thaw [25]: 0.1 | fractional D25 reactivity, osmolality 10 mM [25]: 0.7 | fractional D25 reactivity, osmolality 3000 mM [25]: 0.8 | fractional D25 reactivity, pH 10.0 [25]: 0.4 | fractional D25 reactivity, 10 cycles freeze/thaw with 5% glycerol [26]: 0.6 | fractional D25 reactivity, 10 cycles freeze/thaw with 10% glycerol [26]: 0.7 | fractional D25 reactivity, 50 °C [26]: 1 | fractional D25 reactivity, 70 °C [26]: 0.5 | fractional D25 reactivity, freeze-thaw [26]: 0.3 | fractional D25 reactivity, osmolality 10 mM [26]: 0.9 | fractional D25 reactivity, osmolality 3000 mM [26]: 0.4 | fractional D25 reactivity, pH 3.5 [26]: 2.6 | fractional D25 reactivity, pH 10.0 [26]: 0.7 | fractional D25 reactivity, 50 °C [27]: 0.4 | fractional D25 reactivity, 70 °C [27]: 0.4 | fractional D25 reactivity, freeze-thaw [27]: 0.2 | fractional D25 reactivity, osmolality 10 mM [27]: 0.1 | fractional D25 reactivity, osmolality 3000 mM [27]: 0.1 | fractional D25 reactivity, pH 3.5 [27]: 0.2 | fractional D25 reactivity, pH 10.0 [27]: 0.1 | fractional D25 reactivity, 50 °C (sc10 DS-Cav1 [28]): 0.3 | fractional D25 reactivity, 70 °C (sc10 DS-Cav1 [28]): 0.3 | fractional D25 reactivity, freeze-thaw (sc10 DS-Cav1 [28]): 0.1 | fractional D25 reactivity, osmolality 10 mM (sc10 DS-Cav1 [28]): 0.1 | fractional D25 reactivity, osmolality 3000 mM (sc10 DS-Cav1 [28]): 0.1 | fractional D25 reactivity, pH 3.5 (sc10 DS-Cav1 [28]): 0.2 | fractional D25 reactivity, pH 10.0 (sc10 DS-Cav1 [28]): 0.2 | percent still active (site Ø retained) after 1 h at 70 °C [29]: 39%

AM14 Fab
pKd (sc8 DS-Cav1): 5.88 | pKd [1]: 8.20 | pKd [2]: 8.48 | pKd [3]: 5.66 | pKd [4]: 9.00 | pKd [5]: 7.80 | pKd [6]: 7.73 | pKd [7]: 7.45 | pKd (sc9 DS-Cav1-105Q): 7.34 | pKd [8]: 6.10 | pKd (sc9-19 DS-Cav1): 7.59 | pKd (sc9-24 DS-Cav1): 7.60 | pKd [9]: 7.47 | pKd [10]: 8.48 | pKd [11]: 7.48 | pKd [13]: 8.18 | pKd [14]: 7.89 | pKd [15]: 8.32 | pKd [16]: 8.31 | pKd [17]: 8.74 | pKd [18]: 7.89 | pKd [19]: 8.07
